According to PMC4583379:

Columns and labels:
[1] = flow cytometry with anti-PilA antiserum; settings: glycan lost; control: wild type NEM316
[2] = anti-PilA western, cell-wall extracts, stationary phase; settings: glycan lost; control: wild type NEM316
[3] = anti-PilA western, membrane extracts, exponential phase; settings: glycan lost; control: wild type NEM316
[4] = anti-PilA western, cell-wall extracts, exponential phase; settings: glycan lost; control: wild type NEM316
[5] = anti-PilA western, supernatants of nisin-induced secreted PilA; settings: glycan lost; control: wild-type PilAΔCWA

B1: PilA (Gbs1478), PI-2a pilus tip adhesin: N427Q (protein)
parent chain: MRKYQKFSKILTLSLFCLSQIPLNTNVLGESTVPENGAKGKLVVKKTDDQNKPLSKATFVLKTTAHPESKIEKVTAELTGEATFDNLIPGDYTLSEETAPEGYKKTNQTWQVKVESNGKTTIQNSGDKNSTIGQNHEELDKQYPPTGIYEDTKESYKLEHVKGSVPNGKSEAKAVNPYSSEGEHIREIPEGTLSKRISEVGDLAHNKYKIELTVSGKTIVKPVDKQKPLDVVFVLDNSNSMNNDGPNFQRHNKAKKAAEALGTAVKDILGANSDNRVALVTYGSDIFDGRSVDVVKGFKEDDKYYGLQTKFTIQTENYSHKQLTNNAEEIIKRIPTEAPRAKWGSTTNGLTPEQQKQYYLSKVGETFTMKAFMEADDILSQVDRNSQKIIVHITDGVPTRSYAINNFKLGASYESQFEQMKKNGYLNKSNFLLTDKPEDIKGNGESYFLFPLDSYQTQIISGNLQKLHYLDLNLNYPKGTIYRNGPVREHGTPTKLYINSLKQKNYDIFNFGIDISAFRQVYNEDYKKNQDGTFQKLKEEAFELSDGEITELMKSFSSKPEYYTPIVTSSDASNNEILSKIQQQFEKVLTKENSIVNGTIEDPMGDKINLQLGNGQTLQPSDYTLQGNDGSIMKDSIATGGPNNDGGILKGVKLEYIKNKLYVRGLNLGEGQKVTLTYDVKLDDSFISNKFYDTNGRTTLNPKSEDPNTLRDFPIPKIRDVREYPTITIKNEKKLGEIEFTKVDKDNNKLLLKGATFELQEFNEDYKLYLPIKNNNSKVVTGENGKISYKDLKDGKYQLIEAVSPKDYQKITNKPILTFEVVKGSIQNIIAVNKQISEYHEEGDKHLITNTHIPPKGIIPMTGGKGILSFILIGGSMMSIAGGIYIWKRYKKSSDISREKD
no change: expression_or_secretion [1] | stability_or_folding [2] | expression_or_secretion [3] | expression_or_secretion [4] | stability_or_folding [5]

B2: PilA (Gbs1478), PI-2a pilus tip adhesin: N597Q (protein)
parent chain: B1 parent chain
no change: expression_or_secretion [1] | stability_or_folding [2] | expression_or_secretion [3] | expression_or_secretion [4] | stability_or_folding [5]

B3: PilA (Gbs1478), PI-2a pilus tip adhesin: N427Q-N597Q (protein)
parent chain: B1 parent chain
no change: expression_or_secretion [1] | expression_or_secretion [3] | expression_or_secretion [4]
